According to paper PMC7864067:

Biological target: PFN2 (endogenous, isoform not told apart) (human (endogenous in HAP1)) (UniProt P35080)
UniProt P35080, sequence (P35080 whole entry, canonical isoform): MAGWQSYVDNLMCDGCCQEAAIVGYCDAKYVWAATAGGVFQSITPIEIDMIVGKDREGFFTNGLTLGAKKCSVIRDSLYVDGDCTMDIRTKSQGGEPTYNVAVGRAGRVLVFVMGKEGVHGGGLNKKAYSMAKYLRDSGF

Q: Which results are given for V5-NAA80 (M23L) Δ238-284 (enzyme)?
A: actin reacetylation assay in HAP1 NAA80-KO cells, 8-14 h after transfection: Ac-β-actin signal normalised to V5, compared with cells transfected with NAA80-WT, at 14 h: 64%; actin reacetylation assay in HAP1 NAA80-KO cells, 8-14 h after transfection: Ac-γ-actin signal normalised to V5, compared with cells transfected with NAA80-WT, at 14 h: 62%
